Results from patent publication US20040180811A1 (NEW ENGLAND MEDICAL CENTER HOSPITAL, published 2004).
One block for each binder: values may come before it.

Columns and labels:
[1] = target: T1, GFP-MBSLZM (full-length GFP-MBS with the C-terminal domain of GST-MBSLZmutant) (human, UniProt O14974 1-1030); experiment: GST pull-down from lysate of transfected COS1 cells, anti-MBS immunoblot
T1 construct: also called GFP-MBSLZ mutant; not shown: GFP of the pEGFP vector
T1 sequence (looked up): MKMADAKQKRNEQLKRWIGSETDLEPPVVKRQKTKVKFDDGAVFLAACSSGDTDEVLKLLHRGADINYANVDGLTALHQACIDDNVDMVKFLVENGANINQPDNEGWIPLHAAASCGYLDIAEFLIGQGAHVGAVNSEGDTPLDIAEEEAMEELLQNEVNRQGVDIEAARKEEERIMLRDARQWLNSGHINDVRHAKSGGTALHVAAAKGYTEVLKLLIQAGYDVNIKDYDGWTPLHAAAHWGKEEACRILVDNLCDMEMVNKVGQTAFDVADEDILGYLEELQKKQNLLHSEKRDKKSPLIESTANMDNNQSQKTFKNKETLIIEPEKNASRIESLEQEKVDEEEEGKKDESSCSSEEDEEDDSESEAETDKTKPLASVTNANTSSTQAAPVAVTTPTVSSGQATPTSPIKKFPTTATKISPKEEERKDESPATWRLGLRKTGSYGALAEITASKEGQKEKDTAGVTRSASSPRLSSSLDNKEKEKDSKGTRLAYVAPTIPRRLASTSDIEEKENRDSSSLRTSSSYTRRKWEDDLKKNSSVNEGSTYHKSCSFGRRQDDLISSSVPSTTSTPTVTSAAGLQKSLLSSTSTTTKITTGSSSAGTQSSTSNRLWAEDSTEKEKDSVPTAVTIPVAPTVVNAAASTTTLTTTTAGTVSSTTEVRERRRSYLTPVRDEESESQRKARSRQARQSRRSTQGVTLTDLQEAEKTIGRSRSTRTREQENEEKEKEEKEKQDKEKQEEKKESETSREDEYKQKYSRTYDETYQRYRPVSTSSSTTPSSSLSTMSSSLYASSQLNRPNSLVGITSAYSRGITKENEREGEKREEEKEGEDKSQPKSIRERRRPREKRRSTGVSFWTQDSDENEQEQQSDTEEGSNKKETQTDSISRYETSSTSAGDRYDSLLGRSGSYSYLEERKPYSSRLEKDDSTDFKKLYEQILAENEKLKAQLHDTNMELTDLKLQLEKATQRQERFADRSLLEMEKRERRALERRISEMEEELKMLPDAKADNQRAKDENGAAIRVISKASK

[2] = target: T2, MBS-Cterm-pGBT9 (human MBS base pairs 2043-3090 fused to the Gal4 DNA binding domain) (human, UniProt P04386 1-147; O14974 682-1030); experiment: yeast two-hybrid
T2 construct: Bait of the yeast 2-hybrid screen
From the text: Human MBS-Cterm, base pairs 2043-3090 (kind gift of Dr. Masaaki Ito) was cloned into the EcoR1 site of yeast 2-hybrid vectors pGBT9 and pGAD424, expressing MBS fusion proteins with Gal4 DNA binding domain and DNA activating domain, respectively. Expression of MBS-Cterm in yeast was confirmed by dimerization when MBS-Cterm-pGBT9 and MBS-Cterm-pGAD424 were coexpressed in yeast (data not shown). Yeast strain Y190 was sequentially transformed with MBSCterm- pGBT9 and a human aorta cDNA library (Clontech) using the lithium acetate method. Interactions were identified by growth on selective media, and confirmed by colony lift filter β-galactosidase assay. The cDNA library plasmid was extracted from confirmed positive yeast colonies, and sequenced at the Tufts Core Sequencing Facility.

[3] = target: T3, Myosin binding subunit (MBS) of myosin phosphatase, endogenous in human vascular smooth muscle cells (human, UniProt O14974 1-1030, limits assumed); experiment: GST pull-down from vascular smooth muscle cell lysate, anti-MBS immunoblot
T3 construct: In lysate it stands in the myosin phosphatase complex with PP1 and the 20 kD subunit; also called MYPT1
T3 sequence (looked up): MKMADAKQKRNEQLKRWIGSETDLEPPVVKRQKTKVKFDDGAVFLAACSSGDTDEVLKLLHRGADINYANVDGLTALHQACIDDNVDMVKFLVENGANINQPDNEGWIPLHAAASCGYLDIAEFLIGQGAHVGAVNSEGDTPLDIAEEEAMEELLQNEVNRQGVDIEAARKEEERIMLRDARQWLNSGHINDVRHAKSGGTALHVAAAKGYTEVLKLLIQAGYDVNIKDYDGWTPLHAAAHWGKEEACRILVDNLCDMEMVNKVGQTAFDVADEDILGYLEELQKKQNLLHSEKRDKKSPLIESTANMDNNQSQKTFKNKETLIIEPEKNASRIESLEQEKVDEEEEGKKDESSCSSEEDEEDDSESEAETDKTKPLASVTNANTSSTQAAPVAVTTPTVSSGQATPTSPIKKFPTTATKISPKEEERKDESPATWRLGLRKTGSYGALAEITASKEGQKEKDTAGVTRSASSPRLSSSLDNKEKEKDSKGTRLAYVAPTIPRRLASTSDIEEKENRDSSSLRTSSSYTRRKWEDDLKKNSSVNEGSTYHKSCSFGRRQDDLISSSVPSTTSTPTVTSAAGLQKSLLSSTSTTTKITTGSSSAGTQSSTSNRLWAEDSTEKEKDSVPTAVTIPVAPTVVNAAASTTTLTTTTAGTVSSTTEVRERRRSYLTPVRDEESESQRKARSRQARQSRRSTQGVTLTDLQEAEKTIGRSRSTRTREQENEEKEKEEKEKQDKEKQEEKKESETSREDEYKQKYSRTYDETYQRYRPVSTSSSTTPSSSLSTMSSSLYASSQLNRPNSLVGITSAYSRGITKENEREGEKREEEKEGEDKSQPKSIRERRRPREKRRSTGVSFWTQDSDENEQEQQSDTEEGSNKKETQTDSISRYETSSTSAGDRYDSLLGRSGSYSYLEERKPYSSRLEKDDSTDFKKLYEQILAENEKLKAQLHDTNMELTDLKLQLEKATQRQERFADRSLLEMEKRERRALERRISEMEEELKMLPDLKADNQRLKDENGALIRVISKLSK
From the text: Also shown is the same M-RIP domains expressed in COS1 cells as Flag-tagged proteins and immunoprecipitated with M2 antibody. The MBS immunoblot of the immunopellets is shown in the middle panel and the total cellular MBS content from each lysate used for immunoprecipitation is shown in the lower panel. Molecular weight size markers in kD are shown on the right.
Identical results were obtained in heterologous expression studies with epitope-tagged constructs for various M-RIP domains expressed in COS1 cells (FIG. 4B).
(§1) For fusion protein interactions with proteins from cell lysates, confluent cells were rinsed twice with ice cold PBS, lysed in buffer A, incubated for 1 hour at room temperature, then centrifuged at 14,000 rpm for 20 minutes at 40C. The supernatant was mixed with GST-fusion proteins prebound to glutathione agarose beads. After overnight incubation at 40C, the beads were washed with buffer C, eluted with SDS sample buffer and bound proteins were analyzed by immunoblotting. For fusion protein interactions with purified proteins, fusion proteins immobilized on beads were incubated in buffer A for one hour with purified soluble protein previously eluted from beads. After incubation, the beads were washed three times with buffer C, bound proteins were eluted in SDS sample buffer and analyzed by immunoblotting with anti-GST antibodies.

[4] = target: T4, GST-MBSLZ (amino acids 847-1030 of MBS, includes the leucine zipper domain) (human, UniProt O14974 847-1030); experiment: purified protein interaction, His fusions on Ni-NTA beads, anti-GST immunoblot
T4 construct: range 847-1030; also called wild type C terminal MBS; not shown: glutathione S-transferase (GST) tag
T4 sequence (looked up): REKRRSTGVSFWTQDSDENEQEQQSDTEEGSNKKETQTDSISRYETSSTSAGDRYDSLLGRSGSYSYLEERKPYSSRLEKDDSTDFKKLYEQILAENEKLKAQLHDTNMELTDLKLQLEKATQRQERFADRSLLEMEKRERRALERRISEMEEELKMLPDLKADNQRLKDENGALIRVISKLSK
Protocol: FIG. 4F show a series of immunoblots representing a purified protein interaction assay in which similar quantities of 6×his CC1, CC2, and CC3 bound to Ni-NTA beads were incubated with purified soluble GST-MBSLZ or GST-MBSLZ mutant. Bound GST-MBSLZ and GST-MBSLZ mutant were detected using anti-GST antibodies.
as §1

binding result [1]: no binding
B1: GST-M-RIP545-878 (RhoA-binding domain plus the remaining carboxy-terminus of CC2) (other)
chain: AEFRPIQQALAQERVGGVGPADTHEPLRPEAESGELERERARRREERRKRFGMLDATDGPGTEDAALRMEVDRSPGLPMSDLKTHNVHVEIEQRWHQVETTPLREEKQVPIAPVHLSSEDGGDRLSTHELTSLLEKELEQSQKEASDLLEQNRLLQDQLRVALGREQSAREGYVLQATCERGFAAMEETHQKKIEDLQRQHQRELEKLREEKDRLLAEETAATISAIEAMKNAHREEMERELEKSQRSQISSVNSDVEALRRQYLEELQSVQRELEVLSEQYSQKCLENAHLAQALEAERQALRQCQRENQELNAHNQELNNRLAAEITRLRTL
notes: not shown: glutathione S-transferase (GST) tag of the pGEX vector

binding result [2]: binds
B2: MBS-Cterm-pGAD424 (human MBS base pairs 2043-3090 fused to the Gal4 DNA activating domain) (other, UniProt O14974 682-1030, looked up, not shown: large carriers)
chain: RKARSRQARQSRRSTQGVTLTDLQEAEKTIGRSRSTRTREQENEEKEKEEKEKQDKEKQEEKKESETSREDEYKQKYSRTYDETYQRYRPVSTSSSTTPSSSLSTMSSSLYASSQLNRPNSLVGITSAYSRGITKENEREGEKREEEKEGEDKSQPKSIRERRRPREKRRSTGVSFWTQDSDENEQEQQSDTEEGSNKKETQTDSISRYETSSTSAGDRYDSLLGRSGSYSYLEERKPYSSRLEKDDSTDFKKLYEQILAENEKLKAQLHDTNMELTDLKLQLEKATQRQERFADRSLLEMEKRERRALERRISEMEEELKMLPDLKADNQRLKDENGALIRVISKLSK
notes: domain: MBS-Cterm (base pairs 2043-3090)

binding result [3]: no binding
B3: GST-M-RIP545-823 (M-RIP RhoA-binding domain) (other)
chain: AEFRPIQQALAQERVGGVGPADTHEPLRPEAESGELERERARRREERRKRFGMLDATDGPGTEDAALRMEVDRSPGLPMSDLKTHNVHVEIEQRWHQVETTPLREEKQVPIAPVHLSSEDGGDRLSTHELTSLLEKELEQSQKEASDLLEQNRLLQDQLRVALGREQSAREGYVLQATCERGFAAMEETHQKKIEDLQRQHQRELEKLREEKDRLLAEETAATISAIEAMKNAHREEMERELEKSQRSQISSVNSDVEALRRQYLEELQSVQRELEVLS
notes: as for B1

binding result [4]: binds
B4: 6×his CC2 (polyhistidine fusion of M-RIP coiled-coil domain 2) (other)
chain: AAMEETHQKKIEDLQRQHQRELEKLREEKDRLLAEETAATISAIEAMKNAHREEMERELEKSQRSQISSVNSDVEALRRQYLEELQSVQRELEVLSEQYSQKCLENAHLAQALEAERQALRQCQRENQELNAHNQELNNRLAAEITRLRTL
notes: not shown: polyhistidine (6xhis) tag of the pQE vector
